Results as given in patent US20250320252A1, “LONG-ACTING DUAL GIP/GLP-1 PEPTIDE CONJUGATES AND METHODS OF USE” (The Scripps Research Institute, priority 2021, published 2025).

What was measured:
[1] = target: cynomolgus monkey GIPR (cynomolgus monkey); assay: cell-based or functional assay
[2] = target: cynomolgus monkey GLP1R (cynomolgus monkey) (UniProt F8V479); assay: cell-based or functional assay

Row | Substance | In Vitro Potency GIPR EC50 [nM], Cyno [1] [nM] | In Vitro Potency GLP1R EC50 [nM], Cyno [2] [nM]
1 | Tirzepatide (peptide) | 0.08 | 
2 | Semaglutide (peptide) |  | 0.13
